Publication PMC3897949, “Dimeric structure of p300/CBP associated factor” (BMC Structural Biology, 2014)

B1: PCAF HAT domain (amino acids 493-658) L512A/M513A/V516A (domain or fragment, human, UniProt Q92831 493-658, looked up)
chain: VIEFHVVGNSLNQKPNKKIAAWLAGLQNVFSHQLPRMPKEYITRLVFDPKHKTLALIKDGRVIGGICFRMFPSQGFTEIVFCAVTSNEQVKGYGTHLMNHLKEYHIKHDILNFLTYADEYAIGYFKKQGFSKEIKIPKTKYVGYIKDYEGATLMGCELNPRIPYTE
notes: p300/CBP associated factor (PCAF, KAT2B), human, HAT domain, residues 493-658; also called LMV512AAA
B2: PCAF HAT domain (amino acids 493-658) F539A (domain or fragment, human, UniProt Q92831 493-658, looked up)
chain: VIEFHVVGNSLNQKPNKKILMWLVGLQNVFSHQLPRMPKEYITRLVADPKHKTLALIKDGRVIGGICFRMFPSQGFTEIVFCAVTSNEQVKGYGTHLMNHLKEYHIKHDILNFLTYADEYAIGYFKKQGFSKEIKIPKTKYVGYIKDYEGATLMGCELNPRIPYTE
notes: p300/CBP associated factor (PCAF, KAT2B), human, HAT domain, residues 493-658
B3: PCAF HAT domain (amino acids 493-658) L512D/V516D/F539A (domain or fragment, human, UniProt Q92831 493-658, looked up)
chain: VIEFHVVGNSLNQKPNKKIDMWLDGLQNVFSHQLPRMPKEYITRLVADPKHKTLALIKDGRVIGGICFRMFPSQGFTEIVFCAVTSNEQVKGYGTHLMNHLKEYHIKHDILNFLTYADEYAIGYFKKQGFSKEIKIPKTKYVGYIKDYEGATLMGCELNPRIPYTE
notes: p300/CBP associated factor (PCAF, KAT2B), human, HAT domain, residues 493-658; also called LVF512DDA
B4: PCAF HAT domain (amino acids 493-658) L512D/V516D (domain or fragment, human, UniProt Q92831 493-658, looked up)
chain: VIEFHVVGNSLNQKPNKKIDMWLDGLQNVFSHQLPRMPKEYITRLVFDPKHKTLALIKDGRVIGGICFRMFPSQGFTEIVFCAVTSNEQVKGYGTHLMNHLKEYHIKHDILNFLTYADEYAIGYFKKQGFSKEIKIPKTKYVGYIKDYEGATLMGCELNPRIPYTE
notes: p300/CBP associated factor (PCAF, KAT2B), human, HAT domain, residues 493-658; also called LV512DD

Target: the molecule itself
Experiment: cross-linking; 1 mg/ml protein in 50 mM HEPES pH7.5, 50 mM sodium sulfate; DSS at 5X molar concentration, 1 h at room temperature; SDS-PAGE, coomassie blue

Protein	binding result
B1	binds
B2	binds
B3	binds
B4	binds
